Measurements from patent US20220356256A1 (published 2022).

How the values were obtained:
Assay in all cases: IF staining, CHO cells
[1] = target: T1, FZD10 expressed on CHO cells (UniProt Q9ULW2 29-150, limits assumed)
T1 construct: As m62
T1 sequence (looked up): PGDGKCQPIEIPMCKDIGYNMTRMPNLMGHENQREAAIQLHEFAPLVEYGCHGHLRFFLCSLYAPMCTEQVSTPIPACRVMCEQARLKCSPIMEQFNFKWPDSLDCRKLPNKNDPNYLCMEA

[2] = target: T2, FZD3 expressed on CHO cells (UniProt Q9NPG1 23-136, limits assumed)
T2 construct: As m62
T2 sequence (looked up): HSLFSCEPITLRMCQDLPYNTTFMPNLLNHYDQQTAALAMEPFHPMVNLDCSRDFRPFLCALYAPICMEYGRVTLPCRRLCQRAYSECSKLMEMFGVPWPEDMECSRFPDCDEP

[3] = target: T3, FZD6 expressed on CHO cells (UniProt O60353 19-132, limits assumed)
T3 construct: As m62
T3 sequence (looked up): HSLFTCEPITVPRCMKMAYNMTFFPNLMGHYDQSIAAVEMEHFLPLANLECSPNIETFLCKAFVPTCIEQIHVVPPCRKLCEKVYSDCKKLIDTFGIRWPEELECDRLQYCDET

Measured: binding result

B1: Fab 5017 (Fab, V domains shown)
VH: EVQLVESGGGLVQPGGSLRLSCAASGFNLYYTDMHWVRQAPGKGLEWVASISLFFGYVSYADSVKGRFTISADTSKNTAYLQMNSLRAEDTAVYYCARYLAMDYWGQGTLVTVSS
VL: DIQMTQSPSSLSASVGDRVTITCRASQSVSSAVAWYQQKPGKAPKLLIYSASSLYSGVPSRFSGSRSGTDFTLTISSLQPEDFATYYCQQAAYHWPPLFTFGQGTKVEIKR
notes: Tested as purified Fab; also called 4A1
no binding: [1] | [2] | [3]
